The assay deals with CDY14HL-Fc4 (human) (UniProt Q9BYF1). Nature of the assay: SPR. (SPR reads the build-up and loss of mass on a sensor chip optically.)

In general, Kd refers to the concentration at which binding is half-saturated. Read a high Kd as weaker binding. Consider “SARS-CoV-2 receptor binding domain (RBD), Wuhan (from UniProt P0DTC2 330-530) (domain or fragment)”, for which the dissociation constant (Kd) was determined as 31 pM. This counts as picomolar.

The values are drawn from PMC8282039.
